System: six V600E BRAF melanoma cell lines
Experiment: Screening of recombinant RTK ligands for ability to confer resistance to BRAFi (PLX4720) or MEKi (PD184352) (Table 4)
Type: cell-based, human
Parameters: ability of recombinant RTK ligand to confer resistance / ability of recombinant RTK ligand to confer resistance (screening value): scale not given here
Procedure: HGF is the only one that can substantially confer drug resistance to the cell lines.
The complexity of the tumor microenvironment is much greater than an in vitro co-culture system. Therefore, the inventors explored whether the activation of other RTKs could result in a similar resistance as that observed with the activation of MET. To this end, six V600E BRAF melanoma cell lines were tested for their resistance to either BRAFi (PLX4720) or MEKi (PD184352) after the addition of 22 RTK ligands that have the potential of activating almost all known RTKs. […] The activation of a selected subset of these RTKs was confirmed by western blotting and by high throughput tyrosine kinase phosphorylation profiling.

B1: Wnt1 (protein, UniProt P04628 28-370, looked up)
Proto-oncogene Wnt-1: ANSSGRWWGIVNVASSTNLLTDSKSLQLVLEPSLQLLSRKQRRLIRQNPGILHSVSGGLQSAVRECKWQFRNRRWNCPTAPGPHLFGKIVNRGCRETAFIFAITSAGVTHSVARSCSEGSIESCTCDYRRRGPGGPDWHWGGCSDNIDFGRLFGREFVDSGEKGRDLRFLMNLHNNEAGRTTVFSEMRQECKCHGMSGSCTVRTCWMRLPTLRAVGDVLRDRFDGASRVLYGNRGSNRASRAELLRLEPEDPAHKPPSPHDLVYFEKSPNFCTYSGRLGTAGTAGRACNSSSPALDGCELLCCGRGHRTRTQRVTERCNCTFHWCCHVSCRNCTHTRVLHECL
A2058, PD184352 - 1 uM, ligand 0.4 ng/ml
  ability of recombinant RTK ligand to confer resistance (screening value): 1.04
A2058, PD184352 - 1 uM, ligand 1.6 ng/ml
  ability of recombinant RTK ligand to confer resistance (screening value): 0.99
A2058, PD184352 - 1 uM, ligand 6.25 ng/ml
  ability of recombinant RTK ligand to confer resistance (screening value): 0.86
A2058, PD184352 - 1 uM, ligand 25 ng/ml
  ability of recombinant RTK ligand to confer resistance (screening value): 0.98
A2058, PD184352 - 1 uM, ligand 100 ng/ml
  ability of recombinant RTK ligand to confer resistance (screening value): 1.04
A2058, PLX4720 - 2 uM, ligand 0.4 ng/ml
  ability of recombinant RTK ligand to confer resistance (screening value): 1.04
A2058, PLX4720 - 2 uM, ligand 1.6 ng/ml
  ability of recombinant RTK ligand to confer resistance (screening value): 1.00
A2058, PLX4720 - 2 uM, ligand 6.25 ng/ml
  ability of recombinant RTK ligand to confer resistance (screening value): 1.01
A2058, PLX4720 - 2 uM, ligand 25 ng/ml
  ability of recombinant RTK ligand to confer resistance (screening value): 0.98
A2058, PLX4720 - 2 uM, ligand 100 ng/ml
  ability of recombinant RTK ligand to confer resistance (screening value): 1.07
C32, PD184352 - 1 uM, ligand 0.4 ng/ml
  ability of recombinant RTK ligand to confer resistance (screening value): 1.06
C32, PD184352 - 1 uM, ligand 1.6 ng/ml
  ability of recombinant RTK ligand to confer resistance (screening value): 0.96
C32, PD184352 - 1 uM, ligand 6.25 ng/ml
  ability of recombinant RTK ligand to confer resistance (screening value): 1.11
C32, PD184352 - 1 uM, ligand 25 ng/ml
  ability of recombinant RTK ligand to confer resistance (screening value): 1.02
C32, PD184352 - 1 uM, ligand 100 ng/ml
  ability of recombinant RTK ligand to confer resistance (screening value): 1.05
C32, PLX4720 - 2 uM, ligand 0.4 ng/ml
  ability of recombinant RTK ligand to confer resistance (screening value): 1.13
C32, PLX4720 - 2 uM, ligand 1.6 ng/ml
  ability of recombinant RTK ligand to confer resistance (screening value): 1.00
C32, PLX4720 - 2 uM, ligand 6.25 ng/ml
  ability of recombinant RTK ligand to confer resistance (screening value): 1.03
C32, PLX4720 - 2 uM, ligand 25 ng/ml
  ability of recombinant RTK ligand to confer resistance (screening value): 1.01
C32, PLX4720 - 2 uM, ligand 100 ng/ml
  ability of recombinant RTK ligand to confer resistance (screening value): 0.95
Colo 829, PD184352 - 1 uM, ligand 0.4 ng/ml
  ability of recombinant RTK ligand to confer resistance (screening value): 0.94
Colo 829, PD184352 - 1 uM, ligand 1.6 ng/ml
  ability of recombinant RTK ligand to confer resistance (screening value): 0.93
Colo 829, PD184352 - 1 uM, ligand 6.25 ng/ml
  ability of recombinant RTK ligand to confer resistance (screening value): 0.91
Colo 829, PD184352 - 1 uM, ligand 25 ng/ml
  ability of recombinant RTK ligand to confer resistance (screening value): 0.85
Colo 829, PD184352 - 1 uM, ligand 100 ng/ml
  ability of recombinant RTK ligand to confer resistance (screening value): 0.89
Colo 829, PLX4720 - 2 uM, ligand 0.4 ng/ml
  ability of recombinant RTK ligand to confer resistance (screening value): 0.94
Colo 829, PLX4720 - 2 uM, ligand 1.6 ng/ml
  ability of recombinant RTK ligand to confer resistance (screening value): 0.92
Colo 829, PLX4720 - 2 uM, ligand 6.25 ng/ml
  ability of recombinant RTK ligand to confer resistance (screening value): 0.93
Colo 829, PLX4720 - 2 uM, ligand 25 ng/ml
  ability of recombinant RTK ligand to confer resistance (screening value): 0.06
Colo 829, PLX4720 - 2 uM, ligand 100 ng/ml
  ability of recombinant RTK ligand to confer resistance (screening value): 0.93
G-361, PD184352 - 1 uM, ligand 0.4 ng/ml
  ability of recombinant RTK ligand to confer resistance (screening value): 0.99
G-361, PD184352 - 1 uM, ligand 1.6 ng/ml
  ability of recombinant RTK ligand to confer resistance (screening value): 1.00
G-361, PD184352 - 1 uM, ligand 6.25 ng/ml
  ability of recombinant RTK ligand to confer resistance (screening value): 0.93
G-361, PD184352 - 1 uM, ligand 25 ng/ml
  ability of recombinant RTK ligand to confer resistance (screening value): 0.96
G-361, PD184352 - 1 uM, ligand 100 ng/ml
  ability of recombinant RTK ligand to confer resistance (screening value): 0.93
G-361, PLX4720 - 2 uM, ligand 0.4 ng/ml
  ability of recombinant RTK ligand to confer resistance (screening value): 0.94
G-361, PLX4720 - 2 uM, ligand 1.6 ng/ml
  ability of recombinant RTK ligand to confer resistance (screening value): 0.97
G-361, PLX4720 - 2 uM, ligand 6.25 ng/ml
  ability of recombinant RTK ligand to confer resistance (screening value): 1.01
G-361, PLX4720 - 2 uM, ligand 25 ng/ml
  ability of recombinant RTK ligand to confer resistance (screening value): 0.97
G-361, PLX4720 - 2 uM, ligand 100 ng/ml
  ability of recombinant RTK ligand to confer resistance (screening value): 0.98
SK-MEL-5, PD184352 - 1 uM, ligand 0.4 ng/ml
  ability of recombinant RTK ligand to confer resistance (screening value): 0.02
SK-MEL-5, PD184352 - 1 uM, ligand 1.6 ng/ml
  ability of recombinant RTK ligand to confer resistance (screening value): 0.91
SK-MEL-5, PD184352 - 1 uM, ligand 6.25 ng/ml
  ability of recombinant RTK ligand to confer resistance (screening value): 1.06
SK-MEL-5, PD184352 - 1 uM, ligand 25 ng/ml
  ability of recombinant RTK ligand to confer resistance (screening value): 1.02
SK-MEL-5, PD184352 - 1 uM, ligand 100 ng/ml
  ability of recombinant RTK ligand to confer resistance (screening value): 1.14
SK-MEL-5, PLX4720 - 2 uM, ligand 0.4 ng/ml
  ability of recombinant RTK ligand to confer resistance (screening value): 0.93
SK-MEL-5, PLX4720 - 2 uM, ligand 1.6 ng/ml
  ability of recombinant RTK ligand to confer resistance (screening value): 0.90
SK-MEL-5, PLX4720 - 2 uM, ligand 6.25 ng/ml
  ability of recombinant RTK ligand to confer resistance (screening value): 1.01
SK-MEL-5, PLX4720 - 2 uM, ligand 25 ng/ml
  ability of recombinant RTK ligand to confer resistance (screening value): 0.97
SK-MEL-5, PLX4720 - 2 uM, ligand 100 ng/ml
  ability of recombinant RTK ligand to confer resistance (screening value): 1.01
SK-MEL-28, PD184352 - 1 uM, ligand 0.4 ng/ml
  ability of recombinant RTK ligand to confer resistance (screening value): 0.99
SK-MEL-28, PD184352 - 1 uM, ligand 1.6 ng/ml
  ability of recombinant RTK ligand to confer resistance (screening value): 1.18
SK-MEL-28, PD184352 - 1 uM, ligand 6.25 ng/ml
  ability of recombinant RTK ligand to confer resistance (screening value): 0.95
SK-MEL-28, PD184352 - 1 uM, ligand 25 ng/ml
  ability of recombinant RTK ligand to confer resistance (screening value): 1.18
SK-MEL-28, PD184352 - 1 uM, ligand 100 ng/ml
  ability of recombinant RTK ligand to confer resistance (screening value): 1.20
SK-MEL-28, PLX4720 - 2 uM, ligand 0.4 ng/ml
  ability of recombinant RTK ligand to confer resistance (screening value): 1.02
SK-MEL-28, PLX4720 - 2 uM, ligand 1.6 ng/ml
  ability of recombinant RTK ligand to confer resistance (screening value): 1.25
SK-MEL-28, PLX4720 - 2 uM, ligand 6.25 ng/ml
  ability of recombinant RTK ligand to confer resistance (screening value): 0.99
SK-MEL-28, PLX4720 - 2 uM, ligand 25 ng/ml
  ability of recombinant RTK ligand to confer resistance (screening value): 1.15
SK-MEL-28, PLX4720 - 2 uM, ligand 100 ng/ml
  ability of recombinant RTK ligand to confer resistance (screening value): 1.25
